This note sets out measurements from patent US20160251435A1 (INHIBRX, published 2016).

The target in experiment [1] is T1, human CD47, endogenous cell surface form (Raji, CCRF-CEM cells) (human, UniProt Q08722 19-323).
T1 construct: the cells carry endogenous CD47; also called cell surface CD47
Briefly: flow cytometry on Raji cells (CD20-gated), signal normalised to the maximum of the antibody on that cell population.
Method: (§1) Cynomolgus peripheral blood mononuclear cells (PBMCs) were isolated from cynomolgus whole blood by ficoll-paque gradient centrifugation. […] Cells were analyzed by flow cytometry, first gated on live cells by FSC and SSC, then on cells positive for FL4 (CD20 positive), and lastly the median FL1 (CD47 positive) was measured. The data were normalized by dividing the signal at each concentration by the maximum signal for each antibody on each cell population.

For experiment [2], the target named is T1, human CD47, endogenous cell surface …. Briefly: apparent KD, flow cytometry on Raji cells, non-linear fit of median fluorescence. For orientation: A flow cytometer gives signals particle by particle.
Experiment [3] shares this target. Briefly: flow cytometry on CCRF-CEM cells, FITC anti-mouse IgG, MFI-FL1.
From the text: Bound CD47 antibodies were detected using a FITC conjugated anti-mouse IgG secondary antibody (Jackson ImmunoResearch).
The target is the same in experiment [4]. Briefly: flow cytometry blocking: SIRPa-Fc binding to CCRF-CEM cells with rising antibody.
Experiment [5] has as its target T2, recombinant His-tagged-CD47-IgV (human, UniProt Q08722 19-134).
T2 construct: not shown: His tag
Briefly: blocking ELISA: SIRPa-Fc binding to immobilised His-CD47-IgV with rising antibody.

Experiment [6] deals with T3, cynomolgus monkey CD47 on cynomolgus B-cells (cynomolgus monkey, UniProt A0A5F8AK49 19-323 (rhesus entry)).
T3 construct: whole, on cells; also called cyno CD47
Briefly: flow cytometry on cynomolgus B-cells (CD20-gated PBMC), signal normalised to the maximum of the antibody on that cell population.
Method: as §1

The target in experiment [7] is human CD47, endogenous cell surface form (Raji, CCRF-CEM cells) (human) (UniProt Q08722). Briefly: cell-based or functional assay.
For experiment [8] the target is unchanged. Briefly: apparent KD, flow cytometry on Raji cells, non-linear fit of median fluorescence.
For experiment [9] the target is unchanged. Briefly: flow cytometry blocking: SIRPa-Fc binding to CCRF-CEM cells with rising antibody.
The target is the same in experiment [10]. Briefly: flow cytometry on CCRF-CEM cells, FITC anti-mouse IgG, MFI-FL1.

A value given as a limit tells only on which side of the number the result lay.

B1: murine CD47 antibody 2A1 (antibody, mouse IgG1, V domains shown)
VH: EVQLQQSGAELVRSGASVKLSCTASGFNIKDYYLHWVKQRPEQGLEWIGWIDPDNGDTEFAPKFQGKATMTADTSSNTAYLQLSSLTSEDTAVYYCNAAYGSSSYPMDYWGQGTSVTV
VL: DIKMTQSPSSLYASLGERVTITCKASQDIHRYLSWFQQKPGKSPKILIYRANRLVDGVPSRFSGSGSGQDYSLTISSLEYEDMGIYYCLQYDEFPYTFGGGTKLEMK
notes: Hybridoma-derived mouse IgG1; also called 2A1-mIgG1; 2A1mIgG1
By EC50 (read off the curve) is commonly meant the concentration that produces a half-maximal response. Regarding B1, the “EC50 (read off the curve)” value in [1], in experiment [3] and in [6] was ~0.4 nM in each case. In addition, the Kd in [2] worked out at 0.0936 nM. The “IC50 (read off the curve)” value in experiment [4] is ~0.7 nM; in [5], ~5 nM.

B2: B6H12 CD47 antibody (antibody, from another filing, V domains shown)
VH: EVKLVESGGDLVKPGGSLKLSCAASGFTFSGYGMSWVRQTPDKRLEWVATITSGGTYTYYPDSVKGRFTISRDNAKNTLYLQIDSLKSEDTAIYFCARSLAGNAMDYWGQGTSVTVSS
VL: DIVMTQSPATLSVTPGDRVSLSCRASQTISDYLHWYQQKSHESPRLLIKFASQSISGIPSRFSGSGSGSDFTLSINSVEPEDVGVYYCQNGHGFPRTFGGGTKLEIK
Turning to B2, in experiment [7], the phagocytosis of CFSE-labeled CCRF-CEM tumor cells by human monocyte derived macrophages was > 66.7 pM. In addition, the Kd in [8] amounted to 3.79 nM. This molecule also returned an IC50 (read off the curve) in experiment [9] of 9 nM. For the same molecule, the EC50 (read off the curve) in experiment [10] turned out to be 3 nM.
